PMC12311017

Target: USP1/UAF1 (USP1 res. 21-785, G670A + G671A, with UAF1 res. 9-677) (UniProt O94782)
Test: global kinetic model

Sequence of UniProt O94782 (O94782 21-785 G670A/G671A, chain 1 of 2): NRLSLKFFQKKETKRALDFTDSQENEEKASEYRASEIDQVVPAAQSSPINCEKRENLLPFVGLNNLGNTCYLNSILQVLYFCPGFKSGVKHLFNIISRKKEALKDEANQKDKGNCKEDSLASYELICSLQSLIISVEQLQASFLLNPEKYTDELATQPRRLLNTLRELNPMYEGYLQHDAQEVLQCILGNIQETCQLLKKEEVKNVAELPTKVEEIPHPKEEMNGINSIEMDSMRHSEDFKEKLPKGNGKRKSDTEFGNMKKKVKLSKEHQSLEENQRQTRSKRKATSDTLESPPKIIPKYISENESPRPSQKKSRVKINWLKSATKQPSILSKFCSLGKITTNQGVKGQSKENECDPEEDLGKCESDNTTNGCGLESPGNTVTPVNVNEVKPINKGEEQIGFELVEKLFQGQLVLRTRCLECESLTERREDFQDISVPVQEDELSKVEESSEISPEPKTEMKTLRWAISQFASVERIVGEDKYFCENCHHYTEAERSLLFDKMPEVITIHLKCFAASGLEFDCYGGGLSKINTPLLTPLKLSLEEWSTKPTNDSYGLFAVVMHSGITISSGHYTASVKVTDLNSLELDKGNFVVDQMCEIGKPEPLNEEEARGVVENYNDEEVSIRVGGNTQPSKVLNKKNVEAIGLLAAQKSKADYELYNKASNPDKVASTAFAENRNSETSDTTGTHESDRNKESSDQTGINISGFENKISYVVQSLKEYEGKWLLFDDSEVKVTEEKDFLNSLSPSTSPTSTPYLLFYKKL
Sequence of UniProt O94782 (Q8TAF3 9-677, chain 2 of 2, further chain): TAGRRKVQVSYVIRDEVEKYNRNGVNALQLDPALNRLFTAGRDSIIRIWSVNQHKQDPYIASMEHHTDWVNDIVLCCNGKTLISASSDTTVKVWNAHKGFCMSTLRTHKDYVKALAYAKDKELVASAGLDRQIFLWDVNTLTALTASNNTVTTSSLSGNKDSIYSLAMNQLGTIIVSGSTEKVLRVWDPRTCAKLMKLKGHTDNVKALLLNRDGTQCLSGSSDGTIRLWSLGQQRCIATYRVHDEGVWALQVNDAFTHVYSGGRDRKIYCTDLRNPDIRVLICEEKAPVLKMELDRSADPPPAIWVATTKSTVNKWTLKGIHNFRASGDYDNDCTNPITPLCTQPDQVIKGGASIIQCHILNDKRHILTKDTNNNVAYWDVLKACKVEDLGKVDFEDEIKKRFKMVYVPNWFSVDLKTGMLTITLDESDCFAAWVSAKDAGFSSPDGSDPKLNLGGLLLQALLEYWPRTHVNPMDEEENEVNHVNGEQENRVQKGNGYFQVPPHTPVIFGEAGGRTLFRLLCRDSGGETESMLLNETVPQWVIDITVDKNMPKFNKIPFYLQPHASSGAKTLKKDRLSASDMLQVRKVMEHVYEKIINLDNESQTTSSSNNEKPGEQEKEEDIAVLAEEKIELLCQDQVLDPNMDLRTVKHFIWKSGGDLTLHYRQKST

Substance “K63-linked diubiquitinated PCNA (from UniProt P12004 1-261; P0CG47 1-76; P0CG47 1-76) (complex)” has a koff of 1240 s⁻¹.
